Experimental data reported in US20020031818A1, “Modification of Mdm2 activity” (priority 2000, published 2002).

Legend:
Mdm2 [1] = target: Mdm2 (Homo sapiens, UniProt Q00987); experiment: Co-immunoprecipitation of p19ARF forms with Mdm2; type: cell-based; set-up: expressed in transfected cells; host or cells: 293T; conditions: forced expression of Mdm2 and wt or Δ62 p19ARF
GST-Mdm2 [2] = target: T1, GST-Mdm2 (Homo sapiens, UniProt Q00987); experiment: In vitro ubiquitination of GST-Mdm2 (self-ubiquitination); type: biochemical; conditions: bacculovirus-purified p19ARF added to GST-Mdm2
T1 construct: made in house
Excerpt: GST-Mdm2 was subjected to an in vitro ubiquitination reaction using purified forms of E1, E2 and Ub-HA in the presence of ATP. […] Glutathione bead-coupled GST-Mdm2 in its ubiquitinated or non-ubiquitinated forms was washed and analyzed on immunoblots using antibodies to HA (upper panel). Middle panel depicts the level of Mdm2 expression and the lower panel, the level of p19^ARF added to the reaction.

Mdm2 [3] = experiment: Pulse-chase half-life of Mdm2 wt or S218A in normal human fibroblasts; type: cell-based
Method: FIG. 16A-16F. A. Activation of p38 increases Mdm2 ubiquitination in vivo. EJ cells were transfected with indicated plasmids. 36 h after transfection cells were harvested and Mdm2 was immunoprecipitated (2A10 antibodies). […] Middle panels show expression levels of Mdm2 and p19^ARF. Lower panels depict phospho-and total p38 levels. B. Mutation at Ser218 of Mdm2 abolishes p38 induced Mdm2 ubiquitination. Normal human fibroblasts were transfected with indicated plasmids. 36 h after transfection cells were harvested and lysed. Mdm2 was immunoprecipitated and proteins were separated on a 8% SDS-PAGE. […] C. Mutation at Ser218 of Mdm2 abrogates p19^ARF-induced Mdm2 degradation. […] Upper panels depict Mdm2-Sumo conjugates (detected via Sumo-1 anitbodies), as well as the 75 kD and 90 kD forms of Mdm2 (detected via Mdm2 antibodies). […] To monitor possible changes in amount of p19 bound to Mdm2 association was monitored using normalized Mdm2 levels at the indicated time-points after UV-treatment.
Normal human fibroblasts (NHF) were transfected with wt or S218A forms of Mdm2 expression vectors (4 μg). ^35S-methionine (1 mCi) was added to the cell cultures 24 h after transfection for 5 h (pulse) followed by chase (2 mM cold methionine) for the indicated time points. […] Immunoprecipated Mdm2 was washed, separated on 10% SDS-PAGE, and analyzed by autoradiography.

p53 = p53 ubiquitination and p53 level in EJ cells; type: cell-based, mouse
Excerpt: FIG. 14A-14E. A. In vitro ubiquitination of Mdm2 is inhibited by p19^ARF. GST-Mdm2 was subjected to an in vitro ubiquitination reaction using purified forms of E1, E2 and Ub-HA in the presence of ATP. Addition of bacculovirus-purified p19^ARF at the indicated concentrations blocked Mdm2 ubiquitination. Glutathione bead-coupled GST-Mdm2 in its ubiquitinated or non-ubiquitinated forms was washed and analyzed on immunoblots using antibodies to HA (upper panel). Middle panel depicts the level of Mdm2 expression and the lower panel, the level of p19^ARF added to the reaction. B. p19^ARF expression increases Mdm2 self-ubiquitination in EJ cells. EJ cells were transfected with the indicated plasmids. Cells were harvested 36 h later and proteins ([…]) were immunoprecipitated using Mdm2 antibodies (2A10). Immunoprecipitated material was washed and proteins loaded onto 10% SDS-PAGE, followed by immunoblot analysis with HA-antibodies to detect covalent HA-ubiquitin conjugation to Mdm2 (upper panel). Middle panel depicts level of immunoprecipitated Mdm2. Lower panel represents western analysis of p19^ARF expression levels. C. In vitro ubiquitination of Mdm2 in the presence of p19^ARF and protein extracts. […] The level of p53 immunoprecipitated was monitored in immunoblots using polyclonal antibodies to p53 (middle). […]

GST-Mdm2 [4] = target: T1, GST-Mdm2; experiment: In vitro conjugation of SUMO-1 to GST-Mdm2 (in vitro sumoylation); type: biochemical
Method: A. Time dependent Mdm2 sumoylation in vitro. Bacterially expressed and purified GST-Mdm2 was subjected to in vitro sumoylation reaction in the presence of E1, Ubc9, and ^35S-Sumos. Reaction was terminated after 10,30,50 or 60 minutes, Proteins were separated on 8% gel, Commassie stained, dryed and exposed overnight (upper panel). Lower panel depicts Commassie blue staining of Mdm2 forms. […] (Upper part) The specific Ubc-9-binding site peptide or a nonspecific peptide was added to the reaction for the indicated time periods. […] The lower panel depicts a Coomassie staining visualizing relative amounts of sumoylated and non-sumoylated forms of purified GST-Mdm2. C. The Mdm2 sumoylation assay was carried out in the presence of Ubc-9-binding site peptide (mu9bs) or a nonspecific peptide (mu9bs) which were added to the reaction at the indicated concentrations. […] Mdm2/p53 double null cells were transfected with Flag-tagged Mdm2, HA-tagged Sumo-1 and increasing amounts of the specific or nonspecific Ubc-9-peptides, respectively. Cells were harvested 36 h later and 500 μg of protein was immunoprecipitated using Mdm2 antibodies (2A10). Immunoprecipitated Mdm2 levels were detected using 2A10 antibodies (top). The same membrane was stripped and reprobed using monoclonal antibodies against Sumo-1 (Zymed, middle) to visualize the level of Sumo-1 conjugation to Mdm2 after Ubc-9-peptide expression.
A. Bacterially expressed and purified Mdm2 (1 μg) was incubated with ^32P-labeled Sumo-1, purified Aos1/Uba2 and Ubc9 (0.5 μg) for 60 min at 37° C. in conjugation buffer. For indicated time-periods in vitro translated wt or mutant p19^ARF (0.5 mg) was added to the sumoylation reactions. Upper panel depicts the amount of Sumoylated Mdm2, lower panel reveal the level of Mdm2 and Sumo-Mdm2 in Coomassie blue gel. B. Bacterially expressed and purified Mdm2 (1 μg) was incubated with in vitro-translated ^35S-Sumo, purified Aos1/Uba2 and Ubc9 (0.5 μg) for 60 min at 37° C. in conjugation buffer in the presence of the increasing amounts of bacculovirus-expressed p19^ARF (0, 0.1, 0.5, 1 μg; lanes 1-4 respectively). Bead-bound complexes were washed before being denatured in 3× Sample Buffer. Proteins were separated on 8% SDS-PAGE. Gel was stained with Coomassie blue to verify equal Mdm2 input (lower panel), dried and exposed to X-ray film, which depicts SUMO-1 conjugation to Mdm2 in the presence of the indicated p19 forms (upper panel). […] Double-null cells were transfected with Flag-tagged Mdm2 (1.5 μg), HA-tagged SUMO (1.5 μg) and p19 wt (1.5 μg). Cells were treated with MG132 (40 mM) for 5 h prior to protein preparation. […] (Left) Immunoprecipitated Mdm2 was detected using monoclonal Mdm2 antibodies (2A10, left). […]

T1 sequence (Q00987 whole entry): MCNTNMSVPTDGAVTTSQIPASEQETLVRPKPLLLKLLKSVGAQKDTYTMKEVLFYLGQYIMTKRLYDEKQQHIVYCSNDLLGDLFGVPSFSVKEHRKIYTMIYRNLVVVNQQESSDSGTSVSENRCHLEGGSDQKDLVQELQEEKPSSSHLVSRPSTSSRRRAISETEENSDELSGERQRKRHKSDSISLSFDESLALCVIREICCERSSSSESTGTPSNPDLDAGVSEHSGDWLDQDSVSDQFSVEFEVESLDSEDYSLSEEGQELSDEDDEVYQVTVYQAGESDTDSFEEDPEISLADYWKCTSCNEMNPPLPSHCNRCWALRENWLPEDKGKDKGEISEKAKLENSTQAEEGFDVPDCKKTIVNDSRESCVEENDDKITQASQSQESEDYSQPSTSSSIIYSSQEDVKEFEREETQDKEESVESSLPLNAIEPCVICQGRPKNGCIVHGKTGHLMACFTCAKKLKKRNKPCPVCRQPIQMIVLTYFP
Sequence of Mdm2 (Homo sapiens, UniProt Q00987) (Q00987 whole entry): as above

B1: p19^ARF: Mdm2-regulating protein; in vitro translated, bacculovirus-expressed or transfected (protein)
chain: MGRRFLVTVRIQRAGRPLQERVFLVKFVRSRRPRTASCALAFVNMLLRLERILRRGPHRNPGPGDDDGQRSRSSSSAQLRCRFELRGPHYLLPPGARRSAGRLPGHAGGAARVRGSAGCARCLGSPAARLGPRAGTSRHRAIFAFRWVLFVFRWVVFVYRWERRPDRRA
In the case of B1, the “complex of p19ARF form with Mdm2” value (Mdm2 [1]) is reported as “only the wt form in complex with Mdm2”, the “Mdm2 ubiquitination in vitro” value (GST-Mdm2 [2]) is reported as “efficient inhibition of Mdm2 ubiquitination in vitro” and the “effect on half-life of Mdm2 S218A mutant” value (Mdm2 [3]) is reported as “minimal effects”. The “levels of p53” value (p53) was “elevated levels of p53”, the “degree of p53 ubiquitination” value (p53; Flag-Mdm2, wt p53, HA-Ub, p19ARF constructs 1 μg each) was “noticeable decrease in the degree of p53 ubiquitination” and the “in vitro sumoylation of Mdm2 with p19ARF purified from insect cells” value (GST-Mdm2 [4]; 0, 0.1, 0.5, 1 μg bacculovirus-expressed p19ARF) was “inhibited in a dose-dependent manner”. The “GST-Mdm2 sumoylation in vitro with in vitro-translated p19 forms” value (GST-Mdm2 [4]; in vitro-translated wt or mutant p19ARF) was “efficient inhibition of GST-Mdm2 sumoylation in vitro”.
